Test results taken from the nanobody polyreactivity screen of Harvey et al. (2022).

Assay: yeast display, Sf9 membrane polyspecificity reagent, FACS + sequencing; frameworks hold sequencing errors
Outline: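 Synthetic nanobody libraries on Saccharomyces cerevisiae BJ5465 were galactose-induced for 36–48 hours, stained 1 hour at 4 °C with 10% biotinylated, detergent-solubilized Sf9 membrane reagent and enriched on streptavidin microbeads. FACS then separated cells into low and high (top ~1%) gates by anti-HA (expression) and streptavidin (reagent binding) fluorescence. Genes were colony-PCR amplified, MiSeq 2 × 250 sequenced and CDR-length filtered. A clone's polyreactivity label is that of its gate of origin.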

QVQLVESGGGLVQAGGSLRLTCAASALTFVWYAMGWYRQATGKERELVAAIRGGGSTYYADSVKGRFTISRDNAKNTVYLQMNRLIPEDTAVYYCAAQRSPYYTFYYWGQGTQVTVSS
polyreactivity (PSR sort gate): high polyreactivity

QVQLVESCGGLVQAGGSLRLSCAATGLTISRNVMGWYRQAPGKEREWVAAISRSGSTYYADSVKGRFTISRDNAKNTVYLQMNSLKPEDTAVYYCAKERYYTGRYSGHDYCGQGTQVTVSS
polyreactivity (PSR sort gate): high polyreactivity

QVQLVESGGGLVQAGGSLRLSCAASGRTLRYYAMGWYRQAPGKERELVATISRAGRTNYADSVKGRFTISRDNAKNTVYLQMNSLKPEDTAVYYCAAGRVVYSYSDNYDYWGQGTQVTVSS
polyreactivity (PSR sort gate): high polyreactivity

QDQLVESGGGLVQAGGSLRLSCAASGLTFPYYAMGWYRQAPGKERELVAAITWSGGTTDYADSVKGRFTISRDNAKNTVYLQMNSLKPEDTAVYYCAARFLWKGYYWGQGTQVTVSS
polyreactivity (PSR sort gate): low polyreactivity

QVQLVESGGGLVQAGGSLRLSCAASGIIFGRYAMGWYRQAPGKERELVAAITSGGSTSYADSVKGRFTISRDNAKNTVYLQMNSLKPEDTAVYYCAVVFVWGWPGYYWGQGTQVTVSS
polyreactivity (PSR sort gate): high polyreactivity

LVQLQESGGCLVLAGGGLRLSCAASGNIFTYVIMGWYRQPPGKERELVAAITYGTITNYADSVKGPFTISRDNAKNTVYMQMNCLKPEDTAVYHCAVQSPRIEPRLYYWGQGTQVTVSS
polyreactivity (PSR sort gate): high polyreactivity

QVQLVESGGGLVQAGGSLRLSCAASGRTFWGNAMGWYRQAPGKERELVASISSRGSSTYYADSVKGRFTISRDNAKNTVYLQMNSLKPEDTAVYYCAARTHYFPWPWYVWDYDSWGQGTQVTVSS
polyreactivity (PSR sort gate): low polyreactivity

QVQLVESGGGLGQAGGSLRLSCAASGRTLGIYAMGWYRQAPGKERELVAAITWSGGSTYYADSVKGRFTISRDNAKNTVYLQMNSLKPEDTAVYYCNVRSGGKRRNSGRVDYWGQGTQVTVSS
polyreactivity (PSR sort gate): low polyreactivity

QVQLVESGGGLVQAGGSLRLSCAASGSIFGAYAMGWYRQAPGKERELVAAISGSGTSTYYADSVKGRFTISRDNAKNTVYLQMNSLKPEDTAVYYCATAKLTWRSQGLDYWGQGTQVTVSS
polyreactivity (PSR sort gate): low polyreactivity

QVQLVESGGGLVQAGGSLRLSCAASGSTFVYYAMGWYRKAPGKERELVAAITSSGGSTHYADSVKGRFTISRDNAKNTVYLQMNSLKPEDTAVYYCAVGALGVYGHYGYWGQGTQVTVSS
polyreactivity (PSR sort gate): low polyreactivity

QVQLVESGGGLVQAGGSLRLSCAASGNIIDANAMGWYRQAPGKERELVAAITSSGGSTYYADSVKGRFTISRDNAKNTVYLQMNSLKPEDTAVYYCAKSHAIYYWWDESWGQGTQVTVSS
polyreactivity (PSR sort gate): low polyreactivity

QVQLVESGGGLVQAGGSLRLSCAASGGIIFYYAMGWYRQAPGKERALVAAISYSGGSTYYADSVKGRFTISRDNAKNTVYLQMNSLKPEDTAVYYCAARTHYFPWPWYVWDYDSWGQGTQVTVSS
polyreactivity (PSR sort gate): low polyreactivity

QVQRVESGVGLVQAGGSLRLSCAASGLTFLWYAMGWYRQAPGKERELVAAITSGGRTKYADSVKGRFTISRDNAKNTVYLQMNSLKPEDTAVYYCAAYPQWWGYDYWGQGTQVTVSS
polyreactivity (PSR sort gate): high polyreactivity

QVQLVESGGGLVQAGASLRLSCAASGRTFGRYTMGWYRQAPGKEREFVARINWNGGGTYYADSVKGRFTISRDNAKNTVYLQMNSLKPEDTAVYYCNARKRGARFILGYDYWGQGTQVTVSS
polyreactivity (PSR sort gate): low polyreactivity

QVQLVESGGGLVQAGGSLRLSCAASGFTLKQYAMGWYRQAPGKERELVAAIRWSGGSTNYADSVKGRFTISRDNAKNTVYLQMNSLKPEDTAVYYCAADFRTPYFGIRYGYWGQGTQVTVSS
polyreactivity (PSR sort gate): high polyreactivity

QVQLQESGGGLVQAGGSLRLSCAASGTITVLYKMGWFRQAPGKEREFVASINYGTSTYYADSVKGRFTVSRDSAKNTVYLQMNCLKPEDTAVYYFAAAYRWQDVYRYWGQGTQVTVSS
polyreactivity (PSR sort gate): low polyreactivity

QVQLVESGGGLVQAGGSLRLSCAASGSTFDGYAMGWYRPAPGKERELVAGISTSGGSTYYADSVKGRFTISRDNAKNTVYLQMNSLKPEDSAVYYCAAEWFDQVKDPAADYISYEYWGQGTQVTVSS
polyreactivity (PSR sort gate): low polyreactivity

QVQLVESGGGLVQAGGSLRLSCAASGSTFPGNAMGWYRQAPGKERELVAAINWSGDSTYYADSVKGRFTISRDNAKNTVYLQMNSLKPEDTAVYYCAAYGVGYYYWGQGTQVTVSS
polyreactivity (PSR sort gate): low polyreactivity

QVQLVESGGGLVQAGGSLRLSCAASGRTFAPYAMGWYRQAPGKERELVAAISQRGGSTYYADSVKGRFTISRDNAKNTVYLQMNSLKPEDTAIYYCAATKYFYRLSSAFSFGTYGYWGQGTQVTVSS
polyreactivity (PSR sort gate): low polyreactivity

QVQLEESGGGLVQAGGSLRLSCAASGSTLIYNAMGWYRPAPGKERELVAAISASGTRTYYADSVKGRFTISRDNAKNTVYLQMNSLKPEDTAVYYCNALRRAPRAEYYYWGQGTQVTVSS
polyreactivity (PSR sort gate): high polyreactivity

QVQLVESGGGLVQAGGSLLLSCDASGLTFGYYVMGWYRQAPGKERELVASITNGGGSTYYADSVKGRFTISRDYAKNTVYLQMNSLKPEDTAVYYCAAGSYLRKFDYWGQGTQVTVSS
polyreactivity (PSR sort gate): high polyreactivity

QVQLVESGGGLDHAGGPLRLSCAASGTIFAYYNMGWYRQPPGKERELVAGISKRGGNTYYADSVKGRFTISRDNAKNTVYLQMNSLKPEDTAVYYCNKRYSANTRGYYYWGQGTQVTVSS
polyreactivity (PSR sort gate): high polyreactivity

QVQLVESGGGLVQAGGSLRLSCAASGLTFTYYAMGWNRQAPGKQRELVAAISSSGSDTYYADSVKGRFTISRDNAKNTVYLLMNSLKPEDTAVYYCAAVLTALSPDFEYEYWGQGTQVTVSS
polyreactivity (PSR sort gate): low polyreactivity

QVQLQESRGGLVQAGGSLRLSCAASGYISLAQTIGWYRQAPGKEREFVASIALGSSTYYTDSVKGSFTISRDNAKTTVYLQMISLQAEDTAVYYCAARVGASYAHDFWGQGTQVTVSS
polyreactivity (PSR sort gate): low polyreactivity

QVLLQESGGGLVQAGGSLRLSCAASGTISTDIRMGLYSLAPGKAREFVASIDGCSTTYYADSVKGRFTISRDNAKNTVYLKMNSLKPVDTAMYYCAAREATEFYLYYWGQGTQVTVSS
polyreactivity (PSR sort gate): low polyreactivity

QVQLVESGGGLVQAGGSLRLSCAASGFIFYKYAMGWYRQAPGKERELVAAISRGGTTTYADSVKGRFTISRDNAKNTVYLQMNSLKPEDTAVYYCNKYFRYRYDYWGQGTQVTVSS
polyreactivity (PSR sort gate): high polyreactivity

QVQLVESAGGLVQAGGSLSLSCAASGRIFTDYAMGWYRQAPGKERELVARISRSDGSTYYADSVKGRFSISRDNAKNNVYLQMNSLKAEDTAVYYCAAQWTDGRRDHWWDKGFYYWGLGTQVTVSS
polyreactivity (PSR sort gate): low polyreactivity

QVQLVESGGGLVQAGGSLRLSCAASGFTFRVNAMGWYRQAPGKERELVAAISSGGGITYYADSVKGRYTISRDNAKNTVYLQMNSLKPEDTAVYYCAARENRYLERDYWGQGTQVNVSS
polyreactivity (PSR sort gate): low polyreactivity

QVQLVESGGGLVQAGGSLRLSCAASGGTFVANTMGWYRQAPGKERELVAAITWSGGRTYYADSVKGRFTISRDNAKNTVYLQMNSLKPEDTAVYYCNADYYRKAESSPEGYDYWGQGTQVTVSS
polyreactivity (PSR sort gate): high polyreactivity

QVQLVESGGGLVQEGRSLRLSCAASGLTFQYYAMGWYRPAPGKERELVAAISSGGDTYYADSVKGRFTISRDNAKNNVYFQMYSVKREDTAVYYCAARVVLYSRSTYYYWGQGTQVTVSS
polyreactivity (PSR sort gate): high polyreactivity

QVQLVESGGGLVQAGGSLRLSCAASGSTFTRNAMGLYRQAPGKERELVAAITSGGSTNYADSVKGRFTISRDNAKNTVYLQMNSLKPEDTAVYYCNAESPLSYTRHDSWGQGTQVTVSS
polyreactivity (PSR sort gate): low polyreactivity

QVQLVESGGGLDQAGGSLRLSCAASGSIFRNYAMGWYRQAPGKEREFVAAISGGGGSTYYADSVKGRFTISRDNAKNTVYLQMNSLKPEDTAVYYCARVRYYGALKLYAYDHWGQGTQVTVSS
polyreactivity (PSR sort gate): high polyreactivity

QVQLVESGGGLVQAGGSLRLSCAASGSIFLRYAMGWYRQAPGKERELVAAISGRGGSTYYADSVKGRFTISRDNAKNTVYLQMNSLKPEDTAVYYCAAYRGRSLEYDYWGQGTQVTVSS
polyreactivity (PSR sort gate): high polyreactivity

QVQLVDSGGGLVQAGGSLRLSCSASGFTFAWYAMGWYRQAPGKERELVAAISGSGGRTYYADSVMGRFTISRDNAKNTVYLQMNSLIPEDTAVYYCATRRRYEYYWGQGTQVTVSS
polyreactivity (PSR sort gate): high polyreactivity

QVQLVESGGGLVQAGGSLRLSCAASGSIFAPYAMGWYRQAPGKERELVATIRTTGDSTYYADSVKGRFTISRDNAKNTVYLQMNSLKPEDTAVYYCAAQQGVISRGNYWGQGTQVTVSS
polyreactivity (PSR sort gate): low polyreactivity

QVQLVESGGGLVQAGGSLRLSCAASGRIFLGYTMGWYRQAPGKERELVASMTWSGGSTYYADSVKGRFTISRDKAKNTVYVQMNSLKPEDTAVYYCIAVFWVARGRYDYWGQGTQVTVSS
polyreactivity (PSR sort gate): high polyreactivity

QVQLVESGGGLVQAGGSLRLSCAASGRIFQRYAMGWYRQAPGKERELVAVITKRGGNTYYADSVKGRFTISRDNAKNTVYLQMNSLKPEDTAVYYCANRSGRSTGDYWGQGTQVTVSS
polyreactivity (PSR sort gate): high polyreactivity

QVQLVESGGGLVQAGGSLRLSCAASGFIFYDNAMGWYRQAPGKERELVAAIDWSGDSTYYADSVKGRFTISRDNAKNTVYLQMNSLKPEDTAVYYCAADSQDPGDYYLFDYWGQGTQVTVSS
polyreactivity (PSR sort gate): low polyreactivity

QLQLVESGGGLVQAGGSLRLSCAASGSLFYVYAMGWYRAATGKERELVAAISDDGDTYYADSVKGRFTISRDHEKNTVYLQMNSLKPEDTEVYFCAAEGGANEENSSPEYDYWGLGTQVTVSS
polyreactivity (PSR sort gate): low polyreactivity

QVQLVESGGGLVQAGGSLRLSCAASGSTFYKYAMGWSRQAPGKERELVASITGGTRTYYADSVKGRFTISRDNAKNTVYLQMNSLKPEDTAVYYCNVVGGRYLYSAYDYWGQGTQVTVSS
polyreactivity (PSR sort gate): low polyreactivity

QVQLVESGGGLVQAGGSLRLSCAASGLTFNFYAKGWYRQAPGKEREFVAAISRSGGSTHYADSVKGRFTISRDYAKYTVYLQMYSLKPEDTAVYYCAADGGRKNYDYWGQGTQVTVSS
polyreactivity (PSR sort gate): high polyreactivity

QVQLVESGGGLVQAGGSLRLSCAASGRTFYNNAMGWDRQAPGKERELVATINNRGGPTYYADSVKGRFTISRDNAQNTVYFQMNSLKPEDTAVYYCAASGWHGYNYWGQGTQVTVSS
polyreactivity (PSR sort gate): high polyreactivity

QVQLVESGGGLVQAGGSLRLSCAASGSIFYGNTMGWYRQAPGKERELVAGITRGGGSTYYADSVKGRFTISRDNAKNTVYLQMNSLKPEDTAVYYCAATFPYHDGDYWGQGTQVTVSS
polyreactivity (PSR sort gate): low polyreactivity
